From PMC5798227

Biological target: DS-SOSIP.664 trimer (BG505) (HIV-1 BG505 (clade A))
Experiment: SPR

2-domain soluble CD4 (receptor)
Kd: 8 nM
